Article PMC11865472

target: TGF-β2 (growth factor domain, wild type) (human); experiment: SPR; TGF-β2 immobilised on the chip surface; ratBGO, zfBGO, ratBGO-zfBL or ratBGO-Y248A injected, 2-fold dilution series 500 - 31.3 nM; three consecutive repeats; conditions: not given

| Kd | Substance |
| --- | --- |
| 86 nM | zebrafish betaglycan orphan domain (zfBGO), wild type (domain or fragment) |
| 88 nM | ratBGO-zfBL (ratBGO with the shortened binding loop of zfBGO) (from UniProt P26342 31-360) (domain or fragment) |

target: biotinylated TGF-β2 homodimer; experiment: SPR; conditions: surface: TGF-β2; parent: est. 33; read off a plot

| Kd | Substance |
| --- | --- |
| 180 nM | zebrafish betaglycan orphan domain (zfBGO) K319A |
| 130 nM | zebrafish betaglycan orphan domain (zfBGO) K316A |

same assay, conditions: surface: TGF-β2; parent: est. 160; read off a plot

| Substance | Kd |
| --- | --- |
| rat betaglycan ZP-C domain (BG_(ZP-C)), mammalian-expressed W162A; M165A | 1300 nM |
| rat betaglycan ZP-C domain (BG_(ZP-C)), mammalian-expressed M165A | 330 nM |
| rat betaglycan ZP-C domain (BG_(ZP-C)), mammalian-expressed W162A | 730 nM |
| rat betaglycan ZP-C domain (BG_(ZP-C)), mammalian-expressed S155A | 290 nM |

Further lines, results first:

| Kd | Substance |
| --- | --- |
| 200 nM | rat betaglycan ZP-C domain (BG_(ZP-C)), mammalian-expressed Q166A |
| 1400 nM | rat betaglycan ZP-C domain (BG_(ZP-C)), mammalian-expressed E130A |
| 130 nM | rat betaglycan ZP-C domain (BG_(ZP-C)), mammalian-expressed L143A |
| 70 nM | rat betaglycan ZP-C domain (BG_(ZP-C)), mammalian-expressed K86A |
| 230 nM | rat betaglycan ZP-C domain (BG_(ZP-C)), mammalian-expressed D88A |
| 320 nM | rat betaglycan ZP-C domain (BG_(ZP-C)), mammalian-expressed M164A |

target: TGF-β2 (growth factor domain, wild type) (human); experiment: SPR; BIAcore T200; TGF-β2 WT or TGF-β2 mutants amine-coupled (EDC-NHS) to a CM4 chip, max 400 RU; zfBGO WT or BGZP-C WT injected, 2-fold dilution series 250 - 15.6 nM; 10 mM CHES, 150 mM NaCl, 3 mM EDTA, 0.01% P20, pH 8.0; 100 µl/min; 1:1 kinetic model with drift; three consecutive repeats; conditions: not given

| Kd | Substance |
| --- | --- |
| 148 nM | zebrafish betaglycan orphan domain (zfBGO), wild type (domain or fragment) |

target: TGF-β2 (Y50A, L51A) (human); experiment: as above; conditions: not given

| Kd | Substance |
| --- | --- |
| 205 nM | zebrafish betaglycan orphan domain (zfBGO), wild type (domain or fragment) |

target: inhibin A (InhA), mature heterodimer (UniProt P05111); experiment: SPR; TGF-β2 (b) or InhA (c) immobilised; BGZP-C mutants injected, 2-fold serial dilutions 500 - 15.6 nM; three consecutive repeats; conditions: not given
Sequence (P05111 233-366, chain 1 of 2): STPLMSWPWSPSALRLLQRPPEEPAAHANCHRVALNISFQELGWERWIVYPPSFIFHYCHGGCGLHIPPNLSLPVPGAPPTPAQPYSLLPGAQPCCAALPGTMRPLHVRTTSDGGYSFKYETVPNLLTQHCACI
Sequence (P08476 311-426, chain 2 of 2, further chain): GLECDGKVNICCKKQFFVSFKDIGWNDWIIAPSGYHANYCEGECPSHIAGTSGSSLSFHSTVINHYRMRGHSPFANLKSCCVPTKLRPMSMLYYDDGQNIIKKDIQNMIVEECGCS

| Substance | Kd |
| --- | --- |
| BGZP-C N82A (domain or fragment) | 968 nM |
| BGZP-C I161A (domain or fragment) | 1080 nM |

Results, then the substance that gave them:

| Kd | Substance |
| --- | --- |
| 815 nM | BGZP-C I161Y (domain or fragment) |
| 883 nM | BGZP-C N82Y (domain or fragment) |

target: biotin-TGF-β2 (minimally biotinylated TGF-β2) (human); experiment: SPR; BIAcore X100; minimally biotinylated TGF-β2 captured on a neutravidin CM5 chip, max 50 RU; zfBGO variants injected, 2-fold dilution series (500 or 1000 - 31.3 nM); 10 mM CHES, 150 mM NaCl, 3 mM EDTA, 0.01% P20, pH 8.6; 100 µl/min; 1:1 kinetic model; two consecutive repeats; conditions: not given

| Substance | Kd |
| --- | --- |
| zebrafish betaglycan orphan domain (zfBGO), wild type (domain or fragment) | 38 nM |
| zfBGO L208A (domain or fragment) | 88 nM |

More lines, now with the values ahead:

| Kd | Substance |
| --- | --- |
| 175 nM | zfBGO K319A (domain or fragment) |
| 135 nM | zfBGO K316A (domain or fragment) |
